First the molecules themselves.
T1: PUF4 RNA-binding domain (Saccharomyces cerevisiae, UniProt P25339 537-888)
T1 sequence: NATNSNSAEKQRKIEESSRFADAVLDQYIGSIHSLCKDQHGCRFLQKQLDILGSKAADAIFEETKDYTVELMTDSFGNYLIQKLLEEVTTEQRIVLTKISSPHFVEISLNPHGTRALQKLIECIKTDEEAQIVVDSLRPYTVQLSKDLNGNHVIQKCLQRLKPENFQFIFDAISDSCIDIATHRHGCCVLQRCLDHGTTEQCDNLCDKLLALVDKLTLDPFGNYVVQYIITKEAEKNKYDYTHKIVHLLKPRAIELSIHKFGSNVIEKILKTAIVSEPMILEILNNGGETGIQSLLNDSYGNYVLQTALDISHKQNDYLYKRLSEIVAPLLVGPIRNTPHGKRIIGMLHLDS

B1: Ie_S4_P3E.2_K3.1_C3.2_H3.1_[+2CCT]_A3.1_F3.1_T3.2 (ssRNA)
RNA: UUUGACAACUGAUCGUUCUUUCUCUUGCCUUAUAUAUAUUCUUUCUCGAUCAGUUGUCUUU
B2: Ie_S4_P3E.2_K3.1_C3.2_H3.1_[+4CCC]_A3.1_F3.1_T3.2 (ssRNA)
RNA: UUUGACAACUGAUCGUUCUUUCUCUUGUACCCUAUAUAUUCUUUCUCGAUCAGUUGUCUUU
B3: Ie_S4_P3E.2_K3.1_C3.2_H3.1_[+2TCC]_A3.1_F3.1_T3.2 (ssRNA)
RNA: UUUGACAACUGAUCGUUCUUUCUCUUGUCCUAUAUAUAUUCUUUCUCGAUCAGUUGUCUUU
B4: Ie_S4_P3E.2_K3.1_C3.2_H3.1_[+4CTC]_A3.1_F3.1_T3.2 (ssRNA)
RNA: UUUGACAACUGAUCGUUCUUUCUCUUGUACUCUAUAUAUUCUUUCUCGAUCAGUUGUCUUU
B5: Ie_S4_P3E.2_K3.1_C3.2_H3.1_[+3CTT]_A3.1_F3.1_T3.2 (ssRNA)
RNA: UUUGACAACUGAUCGUUCUUUCUCUUGUCUUAUAUAUAUUCUUUCUCGAUCAGUUGUCUUU
B6: Ie_S4_P3E.2_K3.1_C3.2_H3.1_[+3CCC]_A3.1_F3.1_T3.2 (ssRNA)
RNA: UUUGACAACUGAUCGUUCUUUCUCUUGUCCCAUAUAUAUUCUUUCUCGAUCAGUUGUCUUU
B7: Ie_S4_P3E.2_K3.1_C3.2_H3.1_[+2TTT]_A3.1_F3.1_T3.2 (ssRNA)
RNA: UUUGACAACUGAUCGUUCUUUCUCUUGUUUUAUAUAUAUUCUUUCUCGAUCAGUUGUCUUU
B8: Ie_S4_P3E.2_K3.1_C3.2_H3.1_[+4CCT]_A3.1_F3.1_T3.2 (ssRNA)
RNA: UUUGACAACUGAUCGUUCUUUCUCUUGUACCUUAUAUAUUCUUUCUCGAUCAGUUGUCUUU
B9: Ie_S4_P4E.1_K4.1_C4.1_H4.1_[+1CTCTC]_A4.1_F4.1_T4.1 (ssRNA)
RNA: UUUGACAACUGAUCGUUCUUUCUUCUCUCGUAUAUUAUUCUUUCUCGAUCAGUUGUCUUU
B10: Ie_S4_P4E.1_K4.1_C4.1_H4.1_[+2CCTCT]_A4.1_F4.1_T4.1 (ssRNA)
RNA: UUUGACAACUGAUCGUUCUUUCUUGCCUCUUAUAUUAUUCUUUCUCGAUCAGUUGUCUUU
B11: Ib_S2_P3E.1_K3.1_C3.1_H3.1_[G2C]_A3.1_[T5C]_F3.1_T3.1 (ssRNA)
RNA: UUUGAUUAAUAUGAUAUCGUUCUUUCUUCUACAUAUUCUUUCUCGAUAUCAUAUUAAUCUUU
B12: Ib_S2_P3E.1_K3.1_C3.1_H3.1_[G2C]_A3.1_[A6G]_F3.1_T3.1 (ssRNA)
RNA: UUUGAUUAAUAUGAUAUCGUUCUUUCUUCUAUGUAUUCUUUCUCGAUAUCAUAUUAAUCUUU
B13: Ib_S2_P3E.1_K3.1_C3.1_H3.1_[G2A]_A3.1_[T5A]_F3.1_T3.1 (ssRNA)
RNA: UUUGAUUAAUAUGAUAUCGUUCUUUCUUAUAAAUAUUCUUUCUCGAUAUCAUAUUAAUCUUU
B14: Ib_S2_P3E.1_K3.1_C3.1_H3.1_[G2A]_A3.1_[T5C]_F3.1_T3.1 (ssRNA)
RNA: UUUGAUUAAUAUGAUAUCGUUCUUUCUUAUACAUAUUCUUUCUCGAUAUCAUAUUAAUCUUU
B15: Ie_S4_P3E.2_K3.1_C3.2_H3.1_A3.1_[+6TC]_F3.1_T3.2 (ssRNA)
RNA: UUUGACAACUGAUCGUUCUUUCUCUUGUAUAUCUAUAUUCUUUCUCGAUCAGUUGUCUUU
B16: Ie_S4_P3E.2_K3.1_C3.2_H3.1_A3.1_F3.1_[+8CC]_T3.2 (ssRNA)
RNA: UUUGACAACUGAUCGUUCUUUCUCUUGUAUAUACCUAUUCUUUCUCGAUCAGUUGUCUUU
B17: Ie_S4_P4E.1_K4.1_C4.1_H4.1_[+1CT]_A4.1_F4.1_T4.1 (ssRNA)
RNA: UUUGACAACUGAUCGUUCUUUCUUCUGUAUAUUAUUCUUUCUCGAUCAGUUGUCUUU
B18: Ie_S4_P4E.1_K4.1_C4.1_H4.1_[+3CT]_A4.1_F4.1_T4.1 (ssRNA)
RNA: UUUGACAACUGAUCGUUCUUUCUUGUCUAUAUUAUUCUUUCUCGAUCAGUUGUCUUU
B19: Ie_S4_P4E.1_K4.1_C4.1_H4.1_[+2TT]_A4.1_F4.1_T4.1 (ssRNA)
RNA: UUUGACAACUGAUCGUUCUUUCUUGUUUAUAUUAUUCUUUCUCGAUCAGUUGUCUUU
B20: Ie_S4_P4E.1_K4.1_C4.1_H4.1_[+1CTC]_A4.1_F4.1_T4.1 (ssRNA)
RNA: UUUGACAACUGAUCGUUCUUUCUUCUCGUAUAUUAUUCUUUCUCGAUCAGUUGUCUUU
B21: Ie_S4_P4E.1_K4.1_C4.1_H4.1_[+2CTC]_A4.1_F4.1_T4.1 (ssRNA)
RNA: UUUGACAACUGAUCGUUCUUUCUUGCUCUAUAUUAUUCUUUCUCGAUCAGUUGUCUUU
B22: Ie_S4_P4E.1_K4.1_C4.1_H4.1_[+3TCT]_A4.1_F4.1_T4.1 (ssRNA)
RNA: UUUGACAACUGAUCGUUCUUUCUUGUUCUAUAUUAUUCUUUCUCGAUCAGUUGUCUUU
B23: Ie_S4_P4E.1_K4.1_C4.1_H4.1_[+1TCC]_A4.1_F4.1_T4.1 (ssRNA)
RNA: UUUGACAACUGAUCGUUCUUUCUUUCCGUAUAUUAUUCUUUCUCGAUCAGUUGUCUUU
B24: Ie_S4_P4E.1_K4.1_C4.1_H4.1_[+3CCC]_A4.1_F4.1_T4.1 (ssRNA)
RNA: UUUGACAACUGAUCGUUCUUUCUUGUCCCAUAUUAUUCUUUCUCGAUCAGUUGUCUUU
B25: Ie_S4_P4E.1_K4.1_C4.1_H4.1_[+3TCC]_A4.1_F4.1_T4.1 (ssRNA)
RNA: UUUGACAACUGAUCGUUCUUUCUUGUUCCAUAUUAUUCUUUCUCGAUCAGUUGUCUUU
B26: Ie_S4_P4E.1_K4.1_C4.1_H4.1_[+2TCC]_A4.1_F4.1_T4.1 (ssRNA)
RNA: UUUGACAACUGAUCGUUCUUUCUUGUCCUAUAUUAUUCUUUCUCGAUCAGUUGUCUUU
B27: Ie_S4_P4E.1_K4.1_C4.1_H4.1_[+1TTT]_A4.1_F4.1_T4.1 (ssRNA)
RNA: UUUGACAACUGAUCGUUCUUUCUUUUUGUAUAUUAUUCUUUCUCGAUCAGUUGUCUUU
B28: Ie_S4_P3E.2_K3.1_C3.2_H3.1_[+2TCTCT]_A3.1_F3.1_T3.2 (ssRNA)
RNA: UUUGACAACUGAUCGUUCUUUCUCUUGUCUCUUAUAUAUAUUCUUUCUCGAUCAGUUGUCUUU
B29: Ie_S4_P3E.2_K3.1_C3.2_H3.1_[+3CCTCT]_A3.1_F3.1_T3.2 (ssRNA)
RNA: UUUGACAACUGAUCGUUCUUUCUCUUGUCCUCUAUAUAUAUUCUUUCUCGAUCAGUUGUCUUU
B30: Ie_S4_P3E.2_K3.1_C3.2_H3.1_A3.1_F3.1_[+8CCCTT]_T3.2 (ssRNA)
RNA: UUUGACAACUGAUCGUUCUUUCUCUUGUAUAUACCCUUUAUUCUUUCUCGAUCAGUUGUCUUU
B31: Ie_S4_P3E.2_K3.1_C3.2_H3.1_[+3TCTCT]_A3.1_F3.1_T3.2 (ssRNA)
RNA: UUUGACAACUGAUCGUUCUUUCUCUUGUUCUCUAUAUAUAUUCUUUCUCGAUCAGUUGUCUUU
B32: Ie_S4_P3E.2_K3.1_C3.2_H3.1_[+3TTCCT]_A3.1_F3.1_T3.2 (ssRNA)
RNA: UUUGACAACUGAUCGUUCUUUCUCUUGUUUCCUAUAUAUAUUCUUUCUCGAUCAGUUGUCUUU
B33: Ie_S4_P4E.1_K4.1_C4.1_H4.1_[+1CTCT]_A4.1_F4.1_T4.1 (ssRNA)
RNA: UUUGACAACUGAUCGUUCUUUCUUCUCUGUAUAUUAUUCUUUCUCGAUCAGUUGUCUUU
B34: Ie_S4_P4E.1_K4.1_C4.1_H4.1_[+2CCTC]_A4.1_F4.1_T4.1 (ssRNA)
RNA: UUUGACAACUGAUCGUUCUUUCUUGCCUCUAUAUUAUUCUUUCUCGAUCAGUUGUCUUU
B35: Ie_S4_P4E.1_K4.1_C4.1_H4.1_[+2TTCC]_A4.1_F4.1_T4.1 (ssRNA)
RNA: UUUGACAACUGAUCGUUCUUUCUUGUUCCUAUAUUAUUCUUUCUCGAUCAGUUGUCUUU
B36: Ie_S4_P4E.1_K4.1_C4.1_H4.1_[+1CCCT]_A4.1_F4.1_T4.1 (ssRNA)
RNA: UUUGACAACUGAUCGUUCUUUCUUCCCUGUAUAUUAUUCUUUCUCGAUCAGUUGUCUUU
B37: Ie_S4_P3E.2_K3.1_C3.2_H3.1_[+3TTCC]_A3.1_F3.1_T3.2 (ssRNA)
RNA: UUUGACAACUGAUCGUUCUUUCUCUUGUUUCCAUAUAUAUUCUUUCUCGAUCAGUUGUCUUU
B38: Ie_S4_P3E.2_K3.1_C3.2_H3.1_[+3CCCT]_A3.1_F3.1_T3.2 (ssRNA)
RNA: UUUGACAACUGAUCGUUCUUUCUCUUGUCCCUAUAUAUAUUCUUUCUCGAUCAGUUGUCUUU
B39: Ie_S4_P4E.1_K4.1_C4.1_H4.1_[+2C]_A4.1_F4.1_T4.1 (ssRNA)
RNA: UUUGACAACUGAUCGUUCUUUCUUGCUAUAUUAUUCUUUCUCGAUCAGUUGUCUUU
B40: Ie_S4_P3E.2_K3.1_C3.2_H3.1_[+3C]_A3.1_F3.1_T3.2 (ssRNA)
RNA: UUUGACAACUGAUCGUUCUUUCUCUUGUCAUAUAUAUUCUUUCUCGAUCAGUUGUCUUU
B41: Ie_S4_P3E.2_K3.1_C3.2_H3.1_A3.1_F3.1_[+8T]_T3.2 (ssRNA)
RNA: UUUGACAACUGAUCGUUCUUUCUCUUGUAUAUAUUAUUCUUUCUCGAUCAGUUGUCUUU
B42: Ie_S4_P3E.2_K3.1_C3.2_H3.1_A3.1_F3.1_[+7C]_T3.2 (ssRNA)
RNA: UUUGACAACUGAUCGUUCUUUCUCUUGUAUAUCAUAUUCUUUCUCGAUCAGUUGUCUUU
B43: Ie_S4_P3E.2_K3.1_C3.2_H3.1_A3.1_[+6C]_F3.1_T3.2 (ssRNA)
RNA: UUUGACAACUGAUCGUUCUUUCUCUUGUAUACUAUAUUCUUUCUCGAUCAGUUGUCUUU

This data set concerns the target T1, PUF4 RNA-binding domain. In words: Mg; RNA-MaP; 20 mM Na-HEPES pH 7.4, 30 mM KOAc, 0.75 mM MgCl2, 0.1% Tween-20, 5% glycerol, 0.1 mg/mL BSA, 2 mM DTT; 25 C; 0.0125-409.6 nM protein. The settings on record: tags: N-His6-TEV cleaved; C-SNAP kept, Cy3B-labelled; label: tethered on chip by stalled RNA polymerase.
For the molecule B1, the affinity, expressed as Kd, was 41.1 nM. As for B2, the figure is 1.57 nM. As to B3, binding was characterised by a dissociation constant (Kd) of 10.8 nM. As for B4, the figure is 1.08 nM; as for B5, 11.4 nM; as for B6, 13.7 nM. For B7, binding was put at a Kd of 16.5 nM. With B8, the Kd turned out to be 1.24 nM. The molecule B9 gave a Kd of 5.7 nM. Regarding B10, the affinity, expressed as Kd, was 118 nM. As to B11, the Kd is greater than 2300 nM. The molecule B12 displayed a Kd of 87.4 nM.

In turn, B13 registered a Kd of 1820 nM. On to B14, for which the Kd is 467 nM.

For B15, the dissociation constant (Kd) came to 2.11 nM. For B16, the affinity, expressed as Kd, was 2.91 nM. Molecule B17 had a Kd of 0.223 nM. Consider B18, for which the Kd is 31.2 nM. The molecule B19 came in with a Kd of 16.8 nM.

B20: the Kd is 8.22 nM. As to B21, the Kd is 108 nM. Molecule B22 showed a Kd of 6.36 nM. With B23, the Kd is 7.21 nM. Consider B24, for which the Kd was 15 nM. B25 yielded a Kd of 7.68 nM. With B26, binding was characterised by a dissociation constant (Kd) of 8.71 nM. The molecule B27 displayed a Kd of 0.249 nM.

In turn, B28 yielded a Kd of 23.6 nM.

The molecule B29 came in with a Kd of 21.3 nM. The molecule B30 came in with a Kd of 6.29 nM. As to B31, binding was put at a Kd of 11.8 nM. For the molecule B32, the affinity, expressed as Kd, was 19.9 nM.

The molecule B33 came in with a Kd of 0.208 nM. Molecule B34 yielded a Kd of 105 nM. The molecule B35 yielded a Kd of 23.9 nM. As for B36, the affinity, expressed as Kd, was 0.155 nM.

In turn, B37 registered a Kd of 23.4 nM. B38 gave a Kd of 32.7 nM.

For B39, the affinity, expressed as Kd, was 148 nM. B40 registered a Kd of 6.8 nM. As to B41, the Kd was determined as 1.33 nM. B42 had a Kd of 2.77 nM. In turn, B43 came in with a Kd of 0.411 nM.

As usually defined, the Kd is a measure of binding affinity in units of concentration.

The values are drawn from article PMC9352680, “A comprehensive thermodynamic model for RNA binding by the Saccharomyces cerevisiae Pumilio protein PUF4”.
